Experimental data from patent publication US20180155451A1 (published 2018).

T1: FcγRIIb (human, UniProt P31994 43-217)
T1 construct: extracellular domain; also called FcgRIIb; 2b
T1 sequence (looked up): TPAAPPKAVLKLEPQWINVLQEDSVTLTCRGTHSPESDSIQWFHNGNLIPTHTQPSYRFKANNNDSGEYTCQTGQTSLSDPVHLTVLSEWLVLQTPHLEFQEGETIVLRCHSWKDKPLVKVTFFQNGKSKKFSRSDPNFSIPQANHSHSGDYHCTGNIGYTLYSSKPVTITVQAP

T2: FcγRIIb extracellular domain with C-terminal His tag (human, UniProt P31994 43-217)
T2 construct: extracellular domain; also called 2b; FcgRIIb
T2 sequence (looked up): T1 sequence (looked up)

B1: GpH7-A5/GpH7-B3 variant (P271_03V)/GpL16-k0 (antibody, human IgG1, kappa)
heavy 1: not shown
heavy 2: not shown
light: DIVMTQSPLSLPVTPGEPASISCQASESLVHSNRNTYLHWYLQKPGQSPQLLIYKVSNRFSGVPDRFSGSGSGTDFTLKISRVEAEDVGVYYCSQNTHVPPTFGQGTKVEIERTVAAPSVFIFPPSDEQLKSGTASVVCLLNNFYPREAKVQWKVDNALQSGNSQESVTEQDSKDSTYSLSSTLTLSKADYEKHKVYACEVTHQGLSSPVTKSFNRGEC
notes: IgG1 heterodimer, mutation in the GpH7-B3 chain only; also called He Ab
B2: GpH7-A5/GpH7-B3 variant (P271_04F)/GpL16-k0 (antibody, human IgG1, kappa)
heavy 1: not shown
heavy 2: not shown
light: B1 light
notes: as for B1
B3: GpH7-A5/GpH7-B3 variant (S239_14T)/GpL16-k0 (antibody, human IgG1, kappa)
heavy 1: not shown
heavy 2: not shown
light: B1 light
notes: as for B1
B4: GpH7-A5/GpH7-B3 variant (S239_19Q)/GpL16-k0 (antibody, human IgG1, kappa)
heavy 1: not shown
heavy 2: not shown
light: B1 light
notes: as for B1
B5: GpH7-A5/GpH7-B3 variant (S267_16H)/GpL16-k0 (antibody, human IgG1, kappa)
heavy 1: not shown
heavy 2: not shown
light: B1 light
notes: as for B1
B6: GpH7-A5/GpH7-B3 variant (S267_18N)/GpL16-k0 (antibody, human IgG1, kappa)
heavy 1: not shown
heavy 2: not shown
light: B1 light
notes: as for B1
B7: GpH7-A5/GpH7-B3 variant (V266_19Q)/GpL16-k0 (antibody, human IgG1, kappa)
heavy 1: not shown
heavy 2: not shown
light: B1 light
notes: as for B1
B8: GpH7-A5/GpH7-B3 variant A330_03V/GpL16-k0 (antibody, human IgG1, kappa)
heavy 1: not shown
heavy 2: not shown
light: B1 light
notes: He Ab: alteration in one H chain only; also called He Ab
B9: GpH7-A5/GpH7-B3 variant A330_04F/GpL16-k0 (antibody, human IgG1, kappa)
heavy 1: not shown
heavy 2: not shown
light: B1 light
notes: as for B8
B10: GpH7-A5/GpH7-B3 variant A330_06M/GpL16-k0 (antibody, human IgG1, kappa)
heavy 1: not shown
heavy 2: not shown
light: B1 light
notes: as for B8
B11: GpH7-A5/GpH7-B3 variant A330_07I/GpL16-k0 (antibody, human IgG1, kappa)
heavy 1: not shown
heavy 2: not shown
light: B1 light
notes: as for B8
B12: GpH7-A5/GpH7-B3 variant A330_08L/GpL16-k0 (antibody, human IgG1, kappa)
heavy 1: not shown
heavy 2: not shown
light: B1 light
notes: as for B8
B13: GpH7-A5/GpH7-B3 variant A330_15Y/GpL16-k0 (antibody, human IgG1, kappa)
heavy 1: not shown
heavy 2: not shown
light: B1 light
notes: as for B8
B14: GpH7-A5/GpH7-B3 variant A330_16H/GpL16-k0 (antibody, human IgG1, kappa)
heavy 1: not shown
heavy 2: not shown
light: B1 light
notes: as for B8
B15: GpH7-A5/GpH7-B3 variant A330_20W/GpL16-k0 (antibody, human IgG1, kappa)
heavy 1: not shown
heavy 2: not shown
light: B1 light
notes: as for B8
B16: GpH7-A5/GpH7-B3 variant D270_10E/GpL16-k0 (antibody, human IgG1, kappa)
heavy 1: not shown
heavy 2: not shown
light: B1 light
notes: as for B8
B17: GpH7-A5/GpH7-B3 variant E333_02A/GpL16-k0 (antibody, human IgG1, kappa)
heavy 1: not shown
heavy 2: not shown
light: B1 light
notes: as for B8
B18: GpH7-A5/GpH7-B3 variant E333_03V/GpL16-k0 (antibody, human IgG1, kappa)
heavy 1: not shown
heavy 2: not shown
light: B1 light
notes: as for B8
B19: GpH7-A5/GpH7-B3 variant E333_04F/GpL16-k0 (antibody, human IgG1, kappa)
heavy 1: not shown
heavy 2: not shown
light: B1 light
notes: as for B8
B20: GpH7-A5/GpH7-B3 variant E333_09D/GpL16-k0 (antibody, human IgG1, kappa)
heavy 1: not shown
heavy 2: not shown
light: B1 light
notes: as for B8
B21: GpH7-A5/GpH7-B3 variant E333_13S/GpL16-k0 (antibody, human IgG1, kappa)
heavy 1: not shown
heavy 2: not shown
light: B1 light
notes: as for B8
B22: GpH7-A5/GpH7-B3 variant E333_16H/GpL16-k0 (antibody, human IgG1, kappa)
heavy 1: not shown
heavy 2: not shown
light: B1 light
notes: as for B8

biological target: T3, FcγRIa (human, UniProt P12314 16-292); test: SPR, captured antibody; relative to GpH7-A5/GpH7-B3/GpL16-k0
T3 construct: extracellular domain; also called FcgRI; 1a
T3 sequence (P12314 16-292): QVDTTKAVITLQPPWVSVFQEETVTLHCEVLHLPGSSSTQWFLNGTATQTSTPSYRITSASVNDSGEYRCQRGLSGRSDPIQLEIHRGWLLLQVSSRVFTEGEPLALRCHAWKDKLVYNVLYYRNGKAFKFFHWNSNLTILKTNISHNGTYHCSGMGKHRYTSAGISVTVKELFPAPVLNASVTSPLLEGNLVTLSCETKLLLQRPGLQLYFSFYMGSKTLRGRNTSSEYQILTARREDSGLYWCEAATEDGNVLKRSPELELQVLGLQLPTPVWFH

Binder	He/Con_1a
B1	102 relative, HeCon Ab = 100
B2	102 relative, HeCon Ab = 100
B3	101 relative, HeCon Ab = 100
B4	101 relative, HeCon Ab = 100
B5	100 relative, HeCon Ab = 100
B6	102 relative, HeCon Ab = 100
B7	100 relative, HeCon Ab = 100

biological target: T1, FcγRIIb; test: as above

Binder	He/Con_2b
B1	74.8 relative, HeCon Ab = 100
B2	59.5 relative, HeCon Ab = 100
B3	97.3 relative, HeCon Ab = 100
B4	86.1 relative, HeCon Ab = 100
B5	65.9 relative, HeCon Ab = 100
B6	47.7 relative, HeCon Ab = 100
B7	89.2 relative, HeCon Ab = 100

biological target: T2, FcγRIIb extracellular domain with …; test: SPR, relative to GpH7-A5/GpH7-B3/GpL16-k0
Experimental: (§1) The heterodimerized antibodies He Abs in which one of the H chains was introduced with an alteration were assayed for their binding activities to each activating FcγR and inhibitory FcγR according to the method described in Example 4. […] The activating FcγRs in FIGS. 26, 27, 28, and 29 are FcγRIa, FcγRIIa (R), FcγRIIa (H), and FcγRIIIa, respectively.
(§2) Analysis of interaction between objective antibody and the FcγR was carried out using Biacore T100 (GE Healthcare). HBS-EP+ (GE Healthcare) was used as the running buffer, and the measurement temperature was set to 25° C. Chips produced by immobilizing the antigen peptide by the amine coupling method to a Series S Sencor Chip CM5 (GE Healthcare), or alternatively, chips produced by allowing preliminarily biotinylated antigen peptides to interact with and immobilize onto a Series S Sensor Chip SA (certified) (GE Healthcare) were used. Antibodies of interest were captured onto an antigen peptide-immobilized chip, and allowed to interact to each FcγR diluted with running buffer. To regenerate and repeatedly use the chip, the antibodies captured on the chip were washed off by reacting 10 mM glycine-HCl, pH 1.5.

Binder	He/Con_2b
B8	52.4 control=100
B9	92.8 control=100
B10	80.5 control=100
B11	67.1 control=100
B12	70.5 control=100
B13	95 control=100
B14	87.6 control=100
B15	76.1 control=100
B16	76.5 control=100
B17	83.8 control=100
B18	93.2 control=100
B19	94.6 control=100
B20	94.3 control=100
B21	81.8 control=100
B22	83.3 control=100

biological target: T4, FcγRIIIa extracellular domain with C-terminal His tag (human, UniProt P08637 17-208); test: SPR, relative to GpH7-A5/GpH7-B3/GpL16-k0
T4 construct: extracellular domain; also called 3a; FcgRIIIa
Experimental: as §1, §2

T4 sequence (P08637 17-208): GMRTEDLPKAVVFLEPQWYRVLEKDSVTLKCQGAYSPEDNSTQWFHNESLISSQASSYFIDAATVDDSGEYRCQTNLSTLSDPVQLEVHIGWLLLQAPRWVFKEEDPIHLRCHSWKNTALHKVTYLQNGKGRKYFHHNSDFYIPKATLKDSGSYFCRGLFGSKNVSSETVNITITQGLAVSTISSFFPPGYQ

Binder	He/Con_3a
B8	101 control=100
B9	147 control=100
B10	142 control=100
B11	103 control=100
B12	124 control=100
B13	125 control=100
B14	104 control=100
B15	104 control=100
B16	123 control=100
B17	105 control=100
B18	103 control=100
B19	101 control=100
B20	112 control=100
B21	103 control=100
B22	103 control=100
